Measurements published in article PMC4523205, “Human Non-neutralizing HIV-1 Envelope Monoclonal Antibodies Limit the Number of Founder Viruses during SHIV Mucosal Infection in Rhesus Macaques” (PLoS Pathogens, 2015).

Target: T1, Env of SHIV-SF162P3, on virions (SHIV-SF162P3, env from HIV-1 SF162 …, UniProt P19550, strain)
T1 construct: HIV-1 SF162-derived envelope glycoprotein (gp120/gp41) of SHIV-SF162P3, as it stands on virus particles; source: virus stock
Assay: infectious virus capture assay (plate based); antibody mixed with viral stock, immune complexes held on plates coated with anti-human IgG, captured infectious virus read with indicator cells (RLU)
Conditions: one partner purified

B1: 7B2 IgG1_AAA (antibody, V domains shown)
VH: QVQLVQSGGGVFKPGGSLRLSCEASGFTFTEYYMTWVRQAPGKGLEWLAYISKNGEYSKYSPSSNGRFTISRDNAKNSVFLQLDRLSADDTAVYYCARADGLTYFSELLQYIFDLWGQGARVTVSS
VL: DIVLAQSPDSLAVSPGERATIHCKSSQTLLYSSNNRHSIAWYQQRPGQPPKLLLYWASMRLSGVPDRFSGSGSGTDFTLTINNLQAEDVAIYYCHQYSSHPPTFGHGTRVELR
notes: variable region as in the heavy chain of m1 (PDB 4YDV, heavy chain); as the light chain of m1 (PDB 4YDV, light chain); IgG1 with the Fc changes S298A, E333A, K334A; also called 7B2_AAA; source: CHO cells (Catalent, Somerset, NJ), recombinant; copies: 2 + 2
  binding result: binds
